Source: patent US20200165325A1
Read-outs that look alike come from different tables or passages of the source.

Legend:
[1] = molecular target: Env (gp120) of HIV-1 strain R1166.c01 (HIV-1)
[2] = molecular target: Env (gp120) of HIV-1 strain C3347.c11 (HIV-1)
[3] = molecular target: Env (gp120) of HIV-1 strain WEAU_d15_410_787 (HIV-1)
[4] = molecular target: Env (gp120) of HIV-1 strain PVO.4 (HIV-1)
[5] = molecular target: Env (gp120) of HIV-1 strain ZM109F.PB4 (HIV-1)
[6] = molecular target: Env (gp120) of HIV-1 strain 6545.v4.c1 (HIV-1)
[7] = molecular target: Env (gp120) of HIV-1 strain 3103.v3.c10 (HIV-1)
[8] = molecular target: Env (gp120) of HIV-1 strain Du156.12 (HIV-1)
[9] = molecular target: Env (gp120) of HIV-1 strain 3415.v1.c1 (HIV-1)
[10] = molecular target: Env (gp120) of HIV-1 strain ZM135M.PL10a (HIV-1)
[11] = molecular target: Env (gp120) of HIV-1 strain 1056_10_TA11_1826 (HIV-1)
[12] = molecular target: Env (gp120) of HIV-1 strain ZM249M.PL1 (HIV-1)
[13] = molecular target: Env (gp120) of HIV-1 strain 62357_14_D3_4589 (HIV-1)
[14] = molecular target: Env (gp120) of HIV-1 strain Ce0682_E4 (HIV-1)
[15] = molecular target: Env (gp120) of HIV-1 strain 3817.v2.c59 (HIV-1)
[16] = molecular target: Env (gp120) of HIV-1 strain CNE58 (HIV-1)
[17] = molecular target: Env (gp120) of HIV-1 strain 1006_11_C3_1601 (HIV-1)
[18] = molecular target: Env (gp120) of HIV-1 strain 1054_07_TC4_1499 (HIV-1)
[19] = molecular target: Env (gp120) of HIV-1 strain CAAN5342.A2 (HIV-1)
[20] = molecular target: Env (gp120) of HIV-1 strain RHPA4259.7 (HIV-1)
[21] = molecular target: Env (gp120) of HIV-1 strain 3301.v1.c24 (HIV-1)
[22] = molecular target: Env (gp120) of HIV-1 strain CNE30 (HIV-1)
[23] = molecular target: Env (gp120) of HIV-1 strain C1080.c03 (HIV-1)
[24] = molecular target: Env (gp120) of HIV-1 strain Ce2060_G9 (HIV-1)
[25] = molecular target: Env (gp120) of HIV-1 strain X1254_c3 (HIV-1)
[26] = molecular target: Env (gp120) of HIV-1 strain Q259.d2.17 (HIV-1)
[27] = molecular target: Env (gp120) of HIV-1 strain 703357.C02 (HIV-1)
[28] = molecular target: Env (gp120) of HIV-1 strain ZM233M.PB6 (HIV-1)
[29] = molecular target: Env (gp120) of HIV-1 strain T251-18 (HIV-1)
[30] = molecular target: Env (gp120) of HIV-1 strain X1193_c1 (HIV-1)
[31] = molecular target: Env (gp120) of HIV-1 strain 89-F1_2_25 (HIV-1)
[32] = molecular target: Env (gp120) of HIV-1 strain AC10.0.29 (HIV-1)
[33] = molecular target: Env (gp120) of HIV-1 strain 6811.v7.c18 (HIV-1)
[34] = molecular target: Env (gp120) of HIV-1 strain 928-28 (HIV-1)
[35] = molecular target: Env (gp120) of HIV-1 strain TRO.11 (HIV-1)
[36] = molecular target: Env (gp120) of HIV-1 strain 0330.v4.c3 (HIV-1)
[37] = molecular target: Env (gp120) of HIV-1 strain ZM197M.PB7 (HIV-1)
[38] = molecular target: Env (gp120) of HIV-1 strain 6540.v4.c1 (HIV-1)
[39] = molecular target: Env (gp120) of HIV-1 strain SC422661.8 (HIV-1)
[40] = molecular target: Env (gp120) of HIV-1 strain Q23.17 (HIV-1)
[41] = molecular target: Env (gp120) of HIV-1 strain 211-9 (HIV-1)
[42] = molecular target: Env (gp120) of HIV-1 strain Q769.d22 (HIV-1)
[43] = molecular target: Env (gp120) of HIV-1 strain 620345.c01 (HIV-1)
[44] = molecular target: Env (gp120) of HIV-1 strain CNE53 (HIV-1)
[45] = molecular target: Env (gp120) of HIV-1 strain ZM247v1(Rev-) (HIV-1)
[46] = molecular target: Env (gp120) of HIV-1 strain CAP45.2.00.G3 (HIV-1)
[47] = molecular target: Env (gp120) of HIV-1 strain CAP210.2.00.E8 (HIV-1)
[48] = molecular target: Env (gp120) of HIV-1 strain AC10.0.29 (HIV-1); remark: listed apart in the source
[49] = molecular target: Env (gp120) of HIV-1 strain TRO.11 (HIV-1); remark: listed apart in the source
[50] = molecular target: Env (gp120) of HIV-1 strain SC422661.8 (HIV-1); remark: listed apart in the source

Substance NIH45-46^G54Y IgG (antibody) has a neutralization IC50 [1] of 0.24 µg/mL, a neutralization IC50 [2] of 0.011 µg/mL and a neutralization IC50 [3] of 0.002 µg/mL. The neutralization IC50 [4] was 0.06 µg/mL, the neutralization IC50 [5] was 0.026 µg/mL and the neutralization IC50 [6] was greater than 50 µg/mL. For the same substance, the neutralization IC50 [7] was 0.3 µg/mL, the neutralization IC50 [8] was 0.007 µg/mL and the neutralization IC50 [9] was less than 0.001 µg/mL. It also gave a neutralization IC50 [10] of 0.09 µg/mL, a neutralization IC50 [11] of 0.044 µg/mL and a neutralization IC50 [12] of 0.003 µg/mL. It also gave a neutralization IC50 [13] of 0.03 µg/mL, a neutralization IC50 [14] of 0.017 µg/mL and a neutralization IC50 [15] greater than 50 µg/mL. For the same substance, the neutralization IC50 [16] was 0.04 µg/mL, the neutralization IC50 [17] was 0.005 µg/mL and the neutralization IC50 [18] was 0.064 µg/mL. It also gave a neutralization IC50 [19] of 0.1 µg/mL, a neutralization IC50 [20] of 0.007 µg/mL and a neutralization IC50 [21] of 0.003 µg/mL. It also gave a neutralization IC50 [22] of 0.099 µg/mL, a neutralization IC50 [23] of 0.29 µg/mL and a neutralization IC50 [24] of 0.021 µg/mL. It also gave a neutralization IC50 [25] of 0.013 µg/mL, a neutralization IC50 [26] of 0.009 µg/mL and a neutralization IC50 [27] of 5.6 µg/mL. The neutralization IC50 [28] was 0.16 µg/mL, the neutralization IC50 [29] was 0.35 µg/mL and the neutralization IC50 [30] was 0.006 µg/mL. The neutralization IC50 [31] was greater than 50 µg/mL, the neutralization IC50 [32] was 0.19 µg/mL and the neutralization IC50 [33] was 0.011 µg/mL. It also gave a neutralization IC50 [34] of 0.12 µg/mL, a neutralization IC50 [35] of 0.08 µg/mL and a neutralization IC50 [36] of 0.03 µg/mL. For the same substance, the neutralization IC50 [37] was 0.07 µg/mL, the neutralization IC50 [38] was greater than 50 µg/mL and the neutralization IC50 [39] was 0.04 µg/mL. For the same substance, the neutralization IC50 [40] was 0.02 µg/mL, the neutralization IC50 [41] was greater than 50 µg/mL and the neutralization IC50 [42] was 0.007 µg/mL. For the same substance, the neutralization IC50 [43] was greater than 50 µg/mL, the neutralization IC50 [44] was 0.006 µg/mL and the neutralization IC50 [45] was 0.42 µg/mL. It also gave a neutralization IC50 [46] of 45 µg/mL, a neutralization IC50 [47] greater than 50 µg/mL and a neutralization IC50 [48] of 0.4 µg/mL. It also gave a neutralization IC50 [49] of 0.1 µg/mL and a neutralization IC50 [50] of 0.06 µg/mL.
